# Laboratory results from publication doi:10.1101/054106, “Glu-370 in the Large Subunit Influences the Substrate Binding, Allosteric, and Heat Stability Properties of Potato ADP-glucose Pyrophosphorylase” (bioRxiv, 2016).
# B1: potato ADP-glucose pyrophosphorylase (AGPase) small subunit, wild type (enzyme, potato (S. tuberosum), UniProt P23509 1-521, looked up)
# chain: VSDSQNSQTCLDPDASRSVLGIILGGGAGTRLYPLTKKRAKPAVPLGANYRLIDIPVSNCLNSNISKIYVLTQFNSASLNRHLSRAYASNMGGYKNEGFVEVLAAQQSPENPDWFQGTADAVRQYLWLFEEHTVLEYLILAGDHLYRMDYEKFIQAHRETDADITVAALPMDEKRATAFGLMKIDEEGRIIEFAEKPQGEQLQAMKVDTTILGLDDKRAKEMPFIASMGIYVISKDVMLNLLRDKFPGANDFGSEVIPGATSLGMRVQAYLYDGYWEDIGTIEAFYNANLGITKKPVPDFSFYDRSAPIYTQPRYLPPSKMLDADVTDSVIGEGCVIKNCKIHHSVVGLRSCISEGAIIEDSLLMGADYYETDADRKLLAAKGSVPIGIGKNCHIKRAIIDKNARIGDNVKIINKDNVQEAARETDGYFIKSGIVTVIKDALIPSGIII
# notes: Small subunit of potato (Solanum tuberosum) tuber ADP-glucose pyrophosphorylase, cDNA in plasmid pML10; as far as I recall it lacks the transit peptide; also called SS; SS^WT; source: E. coli AC70R1-504 (glgC-), plasmid pML10, co-expressed with LS (pML7), in cell-free extract
# Biological target: the molecule itself
# Assay: non-reducing SDS-PAGE with Western blot; cell-free extracts in Laemmli sample buffer without reducing agent, 10% SDS-PAGE, Western blot with anti-LS and anti-SS antibodies; shows disulfide-linked dimers only
protein,measurement,value
B1,stoichiometry N,2
